These results are taken from patent US20050069542A1 (Human Genome Sciences, published 2005).

The target of this assay is T1, flag-tagged soluble TL3 (amino acids 105-251 of SEQ ID NO:234) (Homo sapiens (Human), UniProt O75888 105-250).
T1 construct: Heterologous flag-tagged control protein, immobilized in the ELISA; also called flagged tagged TL-3; not shown: Flag tag
T1 sequence: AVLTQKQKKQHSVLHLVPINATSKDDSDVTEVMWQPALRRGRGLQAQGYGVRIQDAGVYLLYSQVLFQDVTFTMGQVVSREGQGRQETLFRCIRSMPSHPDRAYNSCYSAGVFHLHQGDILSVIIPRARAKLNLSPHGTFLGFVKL
In words: phage ELISA on immobilized flag-tagged soluble TL3. As for the experimental part:
The individual phage isolates in the panel of phage, each phage expressing a unique scFv that bound to flag-tagged GMAD, were tested to ensure specificity for GMAD using an ELISA assay. The scFvs were tested in an ELISA for their ability to bind a heterologous flag-tagged protein, in this case—immobilized soluble TL3 (amino acids 105-251 of SEQ ID NO:234, GenBank Accesion Number NP_{—}003799, also described in International Patent Application Publication Number WO97/33902 and WO2001/96528 which are herein incorporated by reference in their entireties).
On the technique in general: An ELISA detects its analyte on a solid surface through an enzyme-linked reagent.

Where a chain is given by its changes, count along the chain named.

B1: GMBC617 (scFv)
scFv: EVQLVETGGGLVQPGGSLRLSCAASGFTVSSNYMSWVRQAPGKGLEWVSVIYSGGSTYYADSVKGRFTISRHNSKNTLYLQMNSLRAEDTAVYYCARGLWFGELLYWGQGTLVTVSSGGGGSGGGGSGGGGSQSALTQPASVSGSRGQSITISCTGTTGDVGGYDYVSWYQQHPGKAPKLLIYGNSNRPSGVPDRFSASKSGNTASLTISGLQAEDEADYFCSTYAPPGIIMFGGGTKLTVLG
For B1, the binding result was “no binding”.

B2: GMBC690 (scFv)
scFv: EVQLVQSGGGVVQPGRSLRLSCAASGFTFSDAWMNWVRQAPGKGLEWVGRIKSKGSGGTIDYAAPVKDRFTISRDDSKNTLYLQMNSLKTEDTALYYCTWDWDFYYGMNVWGRGTLVTVSSGGGGSGGGGSGGGGSQSVLTQPASVSGSPGQSITISCTGTSSDVGGYIYVSWYQQHPGRAPKLMIYEGSKRPSGVSNRFSGSKSGNTASLTISGLQAEDEADYYCSSYTTRSTRVFGGGTKLTVLG
B2: the binding result is “no binding”.

B3: GMBC693 (scFv)
scFv: B2 scFv with E1Q, Q6E, V11L, Q13K, R16G, R113K, I169N, R180K, N207D
For the molecule B3, the binding result is recorded as “no binding”.

B4: GMBC727 (scFv)
scFv: EVQLVESGGDTVKPGGSLRLSCAGSGFTFSDAWMNWVRQAPGKGLEWVGRMKSKGSGGTRDYAAPVNGRFTISRDDSKNTLYLQMNSLNTEDTGVYYCTWDWDFYYGMNVWGRGTLVTVSSGGGGSGGGGSGGGGSQSVLTQPASVSGSPGQSITISCTGTSSDVGGYNYVSWYQQHPGKAPKLMIYEGSKRPSGVSNRFSGSKSGNTASLTISGLQAEDEADYYCSSYTTRSTRVFGGGTKLTVLG
Consider B4, for which the binding result is reported as “no binding”.

B5: GMBC629 (scFv)
scFv: QVQLVESGGGLVKPGGSLRLSCAGSGFKFSDAWMNWVRQAPGKGLEWVGRIKSKGSGGTIEYAVPVKDRFIISRDDSKDTLYLQMNSLKTEDTALYYCTWDWDFYYGMNVWGQGTLVTVSSGGGGSGGGGSGGGGSSELTQDPAVSVALGQTVRITCQGDSLRSYYTNWFQQKPGQAPLLVVYAKNKRPSGIPDRFSGSSSGNTASLTITGAQAEDEADYYCHSRDSSGNHVLFGGGTKLTVLG
Take B5: the binding result is on record as “no binding”.

B6: GMBC685 (scFv)
scFv: QVQLVESGGVVVQPGGSLRLSCAASGFTFSDAWMNWVRQAPGKGLEWVGRIKSKGSGGTIDYAAPVKDRFTISRDDSKNTLYLQMNSLKTEDTALYYCTWDWDFYYGMNVWGKGTMVTVSSGGGGSGGGGSGGGGSSELTQDPAVSVALGQTVRITCQGDSLRSYYTNWFQQKPGQAPLLVVYAKNKRPSGIPDRFSGSSSGNTASLTITGAQAEDEADYYCHSRDSSGNHVLFGGGTKLTVLG
On to B6, for which the binding result was “no binding”.

B7: GMBC729 (scFv)
scFv: B5 scFv with V5Q, V64A, N86D, S164N
Consider B7, for which the binding result is “no binding”.

B8: GMBC665 (scFv)
scFv: EVQLVETGGGLVKPGGSLRLSCAASGFTFSDAWMNWVRQAPGKGLEWVGRIKSKGSGGTIDYAAPVKDRFTISRDDSKNTLYLQMNSLKTEDTALYYCTWDWDFYYGMNVWGQGTMVTVSSGGGGSGGGGSGGGGSSELTQDPAVSVALGQTVRITCQGDSLRSYYASWYQQKPGQAPVLVIYGKNNRPSGIPDRFSGSSSGNTASLTITGAQAEDEADYYCNSRDSSGNHVVFGGGTKLTVLG
As for B8, the binding result was “no binding”.

B9: GMBC632 (scFv)
scFv: B8 scFv with E1Q, E6Q, T7S, A24G, T28K, D61E, T71I, N79D, G107D, S197F
Take B9: the binding result is “no binding”.

B10: GMBC648 (scFv)
scFv: B8 scFv with E1Q, T7S, G55R, A144T
With B10, the binding result is reported as “no binding”.

B11: GMBC635 (scFv)
scFv: B8 scFv with T7S, F70Y, Q113K
Take B11: the binding result is “no binding”.

B12: GMBC621 (scFv)
scFv: EVQLVQSGGGVVQPGRSLRLSCAASGFTFSSYGMHWVRQAPGKGLEWVAVISYDGSNKYYADSVKGRFTISRDNSKNTLYLQMDSLRAEDTAVYFCAKRGLWTPIDYWGKGTLVTVSSGGGGSGGGGSGGGGSSELTQDPAVSVALGQTVRITCQGDSLRSYYASWYQQKPGQAPVLVIYGKNNRPSGIPDRFSGSNSGNTASLTITGAQAEDEADYYCNSRDSSGNHVVFGGGTKLTVLG
As to B12, the binding result is recorded as “no binding”.

B13: GMBC630 (scFv)
scFv: QVQLVESGGGLVQPGRSLRLPCAASGFTFSSYGMHWVRQAPGKGLEWVAVISYDGSNKYYADSVKGRFTISRDNSKNTLYLQMNSLRAEDTAVYYCAKATSLLNAFDIWGRGTMVTVSSGGGGSGGGGSGGGGSSELTQDPAVSVALGQTVRITCQGDSLRSYYASWYQQKPGQAPVLVIYGKNNRPSGIPDRFSGSSSGNTASLTITGAQAEDEADYYCNSRDSSGNHVVFGGGTKLTVLG
Regarding B13, the binding result is recorded as “no binding”.

B14: GMBC628 (scFv)
scFv: QVQLQQSGAEVKKPGASVRVSCKASGYTFTSYGFSWVRQAPGQRLEWMGWISAYKGNANYAEKFQGRVTMTTDTSTNTAYMELRSLRSDDTAVYYCARTRISVAGLDYYYYGLDVWGRGTLVTVSSGGGGSGGGGSGGGGSSELTQDPAVSVALGQTVRITCQGDSLRSYYTNWFQQKPGQAPLLVVYAKNNRPSGIPDRFSGSSSGNTASLTITGAQAEDEADYYCNSRDSSGNHVVFGGGTKLTVLG
As for B14, the binding result is on record as “no binding”.

B15: GMBC627 (scFv)
scFv: GVQLVQSGGEVKKPGASVRVSCKASRYIFSNYGFSWVRQAPGQGLEWMGSIRNDKGSTNYAQGFQDRLTMTTDTSTNTVFMELRSLSSDDTAVYYCASAPYYYGMGIWGKGTLVTVSSGGGGSGGGGSGGGGSQSVLTQPASVSGSSGQSITISCTGTSSDVGGYNYVSWYQQHPGKAPKLMIYEVGNRPSGVSNRFSGSKSGNTASLTISGLQAEDEADYYCSSYTTRSTRVFGGGTKLTVLG
Consider B15, for which the binding result is recorded as “no binding”.

B16: GMBC619 (scFv)
scFv: EVQLVESGGGVVQPGRSLRLSCAASGFTFRSYGMHWVRQAPGKGLEWVAVITYDGSNKYYADSVKGRFTISRDNSKNTLYLQMNSLRADDTAVYYCARDGGGWYHPRLDYWGQGTMVTVSSGGGGSGGGGSGGGGSSELTQDPAVSVALGQTVRITCQGDSLRSYYASWYQQKPGQAPVLVIYGKNNRPSGIPDRFSGSSSGNTASLTITGAQAEDEADYYCNSRDSSGNHVVFGGGTKLTVLG
Turning to B16, the binding result is on record as “no binding”.

B17: GMBC604 (scFv)
scFv: EVQLVQSGAEVKKPGESLRISCKGSGYTFTNYWINWVRQVPGKGLEWMGMIDPTDSYAKYSPSFQGHVTISTDKSVSTAYLQWRSLQASDSAIYYCVRGYSYDLDYWGKGTLVTVSSGGGGSGGGGSGGGGSQSVLTQPASVSGSPGQSITISCTGTSSDVGGYNYVSWYQQHPGKAPKLMIYEGSKRPSGVSNRFSGSKSGNTASLTISGLQAEDEADYYCSSYTTRSTRVFGGGTKLTVLG
On to B17, for which the binding result is reported as “no binding”.

B18: GMBC638 (scFv)
scFv: QVQLVQSGGGLVKPGESLRLSCEASGFEFNYAWMSWVRQAPGKGLEWVGRSRSVASGGTTDYAAPLQDRFTISRDDSKNTLYLQVNSLKIEDTGVYFCKWEKSEYYGMDVWGRGTMVTVSSGGGGSGGGGSGGGGSQSVLTQPASVSGSPGQSITISCTGTSSDVGGYNYVSWYQQHPGKAPKLMIYEGSKRPSGVSNRFSGSKSGNTASLTISGLQAEDEADYYCSSYTTRSTRVFGGGTKLTVLG
Turning to B18, the binding result is reported as “no binding”.

B19: GMBC626 (scFv)
scFv: B18 scFv with Q1E, V54E, M116P, Q217R, R232K, R235Q
Turning to B19, the binding result is given as “no binding”.

B20: GMBC659 (scFv)
scFv: B18 scFv with Q6E, V54E, M116L
For the molecule B20, the binding result is on record as “no binding”.

B21: GMBC618 (scFv)
scFv: EVQLVQSGGGLVKPGGSLRLSCAASGFKFDDAWMNWVRQAPGKGLEWVGRIKSKRSGGTIDYAAPVKDRFTISRDDSKNTLYLQMNSLRTEDTALYYCTWDWDFYYGMNVWGRGTLVTVSSGGGGSGGGGSGGGGSQSVLTQPPSASGTPGQRVTISCSGSSSNIGSNTVNWYQRLPGAAPQLLIYNNDQRPSGIPDRFSGSKSGTSGSLVISGLQSEDEADYYCASWDDSLNGRVFGGGTKLTVLG
As to B21, the binding result was “no binding”.
